Data on 4 variants can be found in publication PMC2266763, “Dimerization of the transmembrane domain of amyloid precursor proteins and familial Alzheimer's disease mutants” (BMC Neuroscience, 2008).

B1: wild-type APP-TM peptide [modified: acceptor version: Glu with the fluorescent group EDANS covalently linked to its sidechain, after the N-terminal Lys-tag (in place of the Trp of the donor version); acceptor version: Glu with … (parent)
chain: GAIIGLMVGGVVIATVIVITLVML
B2: wild-type APP-TM peptide [modified: acceptor version: Glu with the fluorescent group EDANS covalently linked to its sidechain, after the N-terminal Lys-tag (in place of the Trp of the donor version); acceptor version: Glu with … (parent)
chain 1: GAIIGLMVGGVVIATVIVITLVML
chain 2: GAIIGLMVGGVVIATVIVITLVML

Variants of B1 are the subject of the first assay. The experiment in a line: FRET. The following applies: with itself; 50 µM total peptide concentration; homodimer (solid bar); parent: 0.73; read off a plot.
As to GAIIGLMVGGVVIAIVIVITLVML [chain 1 T15I], the response is 0.42 A/D ratio.

Variants of B2 are the subject of a further assay. The experiment in a line: FRET. The note with it: 50 µM total peptide concentration, equimolar wild-type and mutant (open bar), parent: 0.73, read off a plot.
chain 1 GAIIGLMVGGVVIAIVIVITLVML [chain 1 T15I]: the response came to 0.44 A/D ratio. chain 1 GAIIGLMVGGVVIATVIFITLVML [chain 1 V18F]: the response was found to be 0.43 A/D ratio. Still for that read-out and setting: the result for chain 1 GAIIGLMVGGVVIATVIGITLVML [chain 1 V18G] reads 1.6 A/D ratio.

The same assay, now with this note: 20 mM SDS, equimolar Trp-labeled wild-type and Edans-labeled V717G, 50 µM total peptide concentration (highest point of the curve), read off a plot.
As for chain 1 GAIIGLMVGGVVIATVIGITLVML [chain 1 V18G], the response was 1.6 A/D ratio.
